Consider 1 molecule from patent publication US20210401786A1, “COMPOSITION FOR TREATING BURN WOUNDS” (priority 2020, published 2021).

For this assay, the system named is human non-healing burn wounds. The assay is described as follows: Wound healing in patients with non-healing burn wounds. The format is in vivo. The conditions noted are these: for Wound healing time (X +/− S): patients, completely healed cases. As for the experimental part: In this application, medical records of 430 patients, including 368 male and 60 female, aged from 1 to 70 years old, with a clinical diagnosis of at least one non-healing burn wound were collected. The burn injury includes 150 cases of hydrothermal burns, 167 cases of flame burns, 84 cases of electric burns, and 29 cases of chemical burns. […] The non-healing wounds of 430 patients were treated with the composition of Example 3 of the present invention (49 cases), surgery (197 cases), and conventional treatment (rhEGF therapy) (184 cases). There were no statistically significant differences observed among the groups in terms of gender, age, and wound area (p>0.05) (The comparison results of the differences in terms of various factors are shown in Tables 5, 6 and 7).
Among the 49 patients in the present invention, the wound was completely healed in 31 cases (63.27%), effectively healed in 15 cases (30.61%), improved in 2 cases (4.08%), and not healed in 1 case (2.04%). Among the 197 patients in the surgery group, the wound was completely healed in 152 cases (77.15%), effectively healed in 39 cases (19.80%), improved in 6 cases (3.05%), and not healed in 0 case (0%). Among the 184 patients in the conventional treatment group, the wound was completely healed in 96 cases (52.17%), effectively healed in 56 cases (30.43%), improved in 24 cases (13.05%), and not healed in 8 cases (4.35%). The effect of the present invention on wound healing is analyzed by the total effective rate after receiving different treatments. The total effective rate=(the number of completely healed cases+the number of effectively healed cases)/total number of cases.
The wound healing time of the present invention group, surgery group and conventional dressing group is 19.87±9.10 days, 22.71±11.77 days and 36.71±10.60 days, respectively. […] There is no significant difference in wound healing time between the present invention group and the surgery group (P>0.05).

Setting [1] is: patients with non-healing burn wounds.
[2] abbreviates: patients with non-healing burn wounds, listed as conventional treatment.

B1: Conventional treatment: conventional treatment (rhEGF therapy) of patients' non-healing burn wounds (protein, UniProt P01133 23-1207, looked up)
Pro-epidermal growth factor: PQHWSCPEGTLAGNGNSTCVGPAPFLIFSHGNSIFRIDTEGTNYEQLVVDAGVSVIMDFHYNEKRIYWVDLERQLLQRVFLNGSRQERVCNIEKNVSGMAINWINEEVIWSNQQEGIITVTDMKGNNSHILLSALKYPANVAVDPVERFIFWSSEVAGSLYRADLDGVGVKALLETSEKITAVSLDVLDKRLFWIQYNREGSNSLICSCDYDGGSVHISKHPTQHNLFAMSLFGDRIFYSTWKMKTIWIANKHTGKDMVRINLHSSFVPLGELKVVHPLAQPKAEDDTWEPEQKLCKLRKGNCSSTVCGQDLQSHLCMCAEGYALSRDRKYCEDVNECAFWNHGCTLGCKNTPGSYYCTCPVGFVLLPDGKRCHQLVSCPRNVSECSHDCVLTSEGPLCFCPEGSVLERDGKTCSGCSSPDNGGCSQLCVPLSPVSWECDCFPGYDLQLDEKSCAASGPQPFLLFANSQDIRHMHFDGTDYGTLLSQQMGMVYALDHDPVENKIYFAHTALKWIERANMDGSQRERLIEEGVDVPEGLAVDWIGRRFYWTDRGKSLIGRSDLNGKRSKIITKENISQPRGIAVHPMAKRLFWTDTGINPRIESSSLQGLGRLVIASSDLIWPSGITIDFLTDKLYWCDAKQSVIEMANLDGSKRRRLTQNDVGHPFAVAVFEDYVWFSDWAMPSVMRVNKRTGKDRVRLQGSMLKPSSLVVVHPLAKPGADPCLYQNGGCEHICKKRLGTAWCSCREGFMKASDGKTCLALDGHQLLAGGEVDLKNQVTPLDILSKTRVSEDNITESQHMLVAEIMVSDQDDCAPVGCSMYARCISEGEDATCQCLKGFAGDGKLCSDIDECEMGVPVCPPASSKCINTEGGYVCRCSEGYQGDGIHCLDIDECQLGEHSCGENASCTNTEGGYTCMCAGRLSEPGLICPDSTPPPHLREDDHHYSVRNSDSECPLSHDGYCLHDGVCMYIEALDKYACNCVVGYIGERCQYRDLKWWELRHAGHGQQQKVIVVAVCVVVLVMLLLLSLWGAHYYRTQKLLSKNPKNPYEESSRDVRSRRPADTEDGMSSCPQPWFVVIKEHQDLKNGGQPVAGEDGQAADGSMQPTSWRQEPQLCGMGTEQGCWIPVSSDKGSCPQVMERSFHMPSYGTQTLEGGVEKPHSLLSANPLWQQRALDPPHQMELTQ
modifications: Pro-epidermal growth factor
notes: conventional treatment (rhEGF therapy) of patients' non-healing burn wounds
Regarding B1, the “Wound healing time (X +/− S)” value was 36.71 ± 10.60^ days. Also, the “Total effective rate (%)” value ((completely healed + effectively healed cases)/total number of cases) was 82.61% ^. Further, under setting [1], the “Completely healed case (%)” value is given as “(52.17%)”; the “Completely healed case, number” value was determined as 96 cases; the “Effectively healed case (%)” value is given as “(30.43%)”; the “Effectively healed case, number” value is 56 cases. Also, under setting [1], the “Improved case (%)” value was “(13.05%)”; the “Improved case, number” value is on record as 24 cases; the “Not healed case (%)” value was “(4.35%)”; the “Not healed case, number” value is given as 8 cases. Also, under setting [2], the “Completely healed case (%)” value was 52.17%, the “Effectively healed case (%)” value came to 30.43%, the “Improved case (%)” value was 13.05% and the “Not healed case (%)” value was 4.35%. For the same molecule, for the setting “listed as conventional dressing”, the “Wound healing time (X +/− S)” value turned out to be 36.71 ± 10.60 days.
